Measured values published in publication PMC3527619.
Blank lines part the entries; values can stand above or below the binder they belong to.

Tests used:
[1] = target: Microtubules (polymerized Tubulin, Triton-insoluble fraction) of HeLa cells (human (endogenous in HeLa)) (UniProt P68363); test: Triton-X-100 extraction of soluble and insoluble (cytoskeletal) fractions, Western blot and densitometry; HeLa cells transfected with pCGN-Centaurin-α2; 0.1% Triton-X-100 in Pipes pH 6.94, EGTA, MgCl2, 2 M glycerol, 10 min at room temperature; control cells or cells treated with nocodazole (3 µg/ml, 3 h) or cold (4°C, 3 h)
[2] = target: Tubulin purified from bovine brain, polymerised to microtubules in vitro (bovine) (UniProt Q6B856); test: co-sedimentation; as a4 (40 µM tubulin plus 5 µM Centaurin-α2, 90 minutes at 37°C), then 30 minutes of incubation on ice before centrifugation (37°C→4°C)
[3] = target: Tubulin purified from bovine brain, polymerised to microtubules in vitro (bovine) (UniProt Q6B856); test: co-sedimentation; 40 µM tubulin plus 5 µM Centaurin-α2, 90 minutes of polymerization at 37°C in 80 mM K-PIPES pH 6.9, 2 mM EGTA, 1 mM MgCl2, 10% glycerol; 16500 g for 30 minutes; supernatant and pellet on SDS-PAGE, Coomassie, densitometry

Chain of UniProt P68363 (P68363 whole entry, chain 1 of 2): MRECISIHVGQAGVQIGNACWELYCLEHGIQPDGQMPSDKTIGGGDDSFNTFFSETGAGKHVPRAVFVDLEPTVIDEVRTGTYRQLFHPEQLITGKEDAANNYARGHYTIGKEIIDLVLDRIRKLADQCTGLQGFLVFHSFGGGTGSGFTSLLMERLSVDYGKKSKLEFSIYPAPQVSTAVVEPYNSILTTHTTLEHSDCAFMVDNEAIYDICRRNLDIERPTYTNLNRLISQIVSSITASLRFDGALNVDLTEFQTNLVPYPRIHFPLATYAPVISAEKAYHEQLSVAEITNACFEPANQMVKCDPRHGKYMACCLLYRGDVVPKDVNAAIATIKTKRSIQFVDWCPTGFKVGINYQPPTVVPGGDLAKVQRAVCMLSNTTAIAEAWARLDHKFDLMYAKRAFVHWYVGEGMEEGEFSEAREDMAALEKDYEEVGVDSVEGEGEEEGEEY
Chain of UniProt P68363 (P07437 whole entry, chain 2 of 2, further chain): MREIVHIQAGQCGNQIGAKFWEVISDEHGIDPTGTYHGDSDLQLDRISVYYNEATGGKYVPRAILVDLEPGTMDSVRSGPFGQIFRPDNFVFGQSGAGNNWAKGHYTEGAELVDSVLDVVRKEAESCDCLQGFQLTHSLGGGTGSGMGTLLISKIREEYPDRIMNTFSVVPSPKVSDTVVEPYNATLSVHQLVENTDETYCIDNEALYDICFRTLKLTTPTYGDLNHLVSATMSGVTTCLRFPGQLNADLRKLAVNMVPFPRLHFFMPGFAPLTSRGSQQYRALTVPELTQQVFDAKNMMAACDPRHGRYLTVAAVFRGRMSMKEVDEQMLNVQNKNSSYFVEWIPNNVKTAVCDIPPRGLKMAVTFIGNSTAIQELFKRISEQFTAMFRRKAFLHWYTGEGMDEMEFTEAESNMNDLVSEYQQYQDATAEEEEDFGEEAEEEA

percent of Centaurin-α2 in the Triton-insoluble (MT) fraction [1]: 80%
B1: HA (hemoagglutinin)-tagged Centaurin-α2 (pCGN-Centaurin-α2) (natural protein)
chain: MGDRERNKKRLLELLRAPDTGNAHCADCGAADPDWASYKLGIFICLNCCGVHRNFPDISRVKSVRLDFWDDSIVEFMIHNGNLRVKAKFEARVPAFYYIPQANDCLVLKEQWIRAKYERREFMADGETISLPGNREGFLWKRGRDNSQFLRRKFVLLAREGLLKYFTKEQGKSPKAVISIKDLNATFQTEKIGHPHGLQITYRRDGHTRNLFVYHESGKEIVDWFNALRAARLQYLKMAFPELPESELVPFLTRNYLKQGFMEKTGPKQKEPFKKRWFALDCHERRLLYYKNPLDAFEQGQVFLGNKEQGYEAYEDLPKGIRGNRWKAGLTIVTPERRFVLTCPSEKEQQEWLESLRGVLSSPLTPLNRLTASTESGRSSR

percent of Centaurin-α2 in the MT (pellet) fraction [2]: 50% | percent of Centaurin-α2 in the MT (pellet) fraction [3]: 80%
B2: His-tagged Centaurin-α2 (recombinant, pET-Centα2) (natural protein)
chain: B1 chain
